Reference: patent US11369662B2 (The Medical College of Wisconsin, Inc., priority 2014, dated 2022)

How the values were obtained:
CXCR4 [1] = biological target: T1, CXCR4 (Homo sapiens, UniProt P61073); test: CXCR4 ubiquitination assay in HEK293 cells stably expressing HA-CXCR4; assay type: cell-based; settings: HEK293 HA-CXCR4 with FLAG-ubiquitin, 80 ng/ml, 30 min
T1 construct: purchased Millipore
Experimental: (§1) CXCR4 ubiquitination assays. HEK293 cells stably expressing HA-CXCR4 grown on 10-cm dishes were transfected with 3 μg FLAG-ubiquitin. The next day, cells were passaged onto 6-cm dishes and allowed to grow for an additional 24 h. […] Cells were then washed once on ice with cold PBS, and collected in 1 ml lysis buffer [50 mM Tris-Cl, pH 7.4, 150 mM NaCl, 5 mM EDTA, 0.5% (w/v) sodium deoxycholate, 1% (v/v) NP-40, 0.1% (w/v) SDS, 20 mM N-ethyCXCL121aleimide (NEM), and 10 μg/ml each of leupeptin, aprotinin, and pepstatin A]. Samples were transferred into microcentrifuge tubes and placed at 4° C. for 30 min, followed by sonification and centrifugation to pellet cellular debris. Clarified cell lysates were incubated with an anti-HA polyclonal and isotype control antibodies and the immunoprecipitates were analyzed by SDS-PAGE followed by immunoblotting using an anti-FLAG antibody conjugated to HRP.
as §1, with “Tris-CI,” for “Tris-Cl,”

CXCR4 [2] = biological target: T1, CXCR4; test: CXCR4 degradation assay in HeLa cells; assay type: cell-based; settings: 80 ng/ml, 3 h, compared to vehicle
Experimental: (§2) CXCR4 degradation assay. HeLa cells grown on 6-cm dishes were washed once and incubated with DMEM containing 10% FBS and 50 μg/ml cyclohexamide for 15 min at 37° C. […] Cells were washed once and collected in 300 μl 2× sample buffer. Receptor levels were determined by SDS-PAGE followed by immunoblotting using an anti-CXCR4 antibody. Blots were stripped and reprobed for actin to assess loading. Receptor levels normalized to actin levels were determined by densitometric analysis.
as §2, with “2×sample” for “2× sample”

KG1a cells = test: Apoptosis assays in KG1a cells expressing CXCR4-YFP; assay type: cell-based, human; settings: for cleavage of PARP: 100 ng/ml
Experimental: Apoptosis assays. KG1a (human acute myelogenous leukemia) cells were assayed for CXCL12-dependent apoptosis as previously described. Briefly, CXCR4 expression on KG1a cells was achieved via transient transfection with a plasmid encoding a CXCR4-YFP fluorescent fusion protein. […] Apoptosis was assayed by staining cells with APC-conjugated annexin V to detect cell-surface phosphatidyl serine (BD Biosciences) or Alexaflour-647-conjugated antibody to detect cleaved PARP (BD Biosciences), and the percentage of YFP+ cells undergoing apoptosis was determined by flow cytometry.

CXCR4 [3] = biological target: T1, CXCR4; test: Confocal microscopy of CXCR4 Ser324/Ser325 phosphorylation in HeLa cells; assay type: cell-based; settings: HeLa cells with HA-CXCR4-YFP, 80 ng/ml, 15 min
Experimental: Connfocal microscopy. HeLa cells transiently transfected with HA-CXCR4-YFP were passaged onto poly-L-lysine coated coverslips and grown for 24 h. The next day, cells were washed once with warm DMEM containing 20 mM HEPES, pH 7.5, and incubated in the same medium for 3-4 h at 37° C. […] Cells were then fixed with PBS containing 3.7% paraformaldehyde, followed by permeabilization with 0.05% (w/v) saponin for 10 min, similar to a protocol we have described previously. Cells were then incubated with 1% goat serum in 0.05% saponin-PBS for 30 min at 37° C., followed by staining with […] monoclonal antibody that recognizes dually phosphorylated CXCR4 on serine residues 324 and 325 (clone 5E11) (1:50 dilution) for 1 h at 37° C. […] Samples were analyzed using an LSM 510 laser scanning confocal microscope (Carl Zeiss, Thornwood, N.Y.) equipped with a Plan-Apo 63×/1.4 oil lens objective. […] Acquired images were analyzed using ImageJ, version 1.41o software (National Institutes of Health, Bethesda, Md.) and Adobe Photoshop (CS4).
Confocal microscopy. […] Samples were analyzed using an LSM 510 laser scanning confocal microscope (Carl Zeiss, Thornwood, N.Y.) equipped with a Plan-Apo 63×/1.4 oil lens objective. […] Acquired images were analyzed using ImageJ, version 1.410 software (National Institutes of Health, Bethesda, Md.) and Adobe Photoshop (CS4).

T1 sequence (P61073 whole entry): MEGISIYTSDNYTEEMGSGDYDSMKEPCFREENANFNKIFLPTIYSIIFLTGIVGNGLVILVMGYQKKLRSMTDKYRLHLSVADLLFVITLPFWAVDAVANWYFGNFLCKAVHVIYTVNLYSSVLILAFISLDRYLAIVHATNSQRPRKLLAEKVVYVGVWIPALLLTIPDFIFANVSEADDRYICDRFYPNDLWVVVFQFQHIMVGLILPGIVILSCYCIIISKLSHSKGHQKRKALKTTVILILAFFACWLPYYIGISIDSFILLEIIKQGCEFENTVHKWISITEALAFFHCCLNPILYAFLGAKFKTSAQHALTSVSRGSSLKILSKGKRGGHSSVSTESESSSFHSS

Row | Substance | CXCR4 ubiquitination (CXCR4 [1]) | CXCR4 ubiquitination (CXCR4 [1]; listed as CXCL12) | CXCR4 degradation (CXCR4 [2]) | cleavage of PARP (KG1a cells) | EC50 (KG1a cells; 16-18 h, read-out: EC50 of increase in annexin V) | staining for CXCR4 phosphorylated on Ser324 and Ser325 (CXCR4 [3]) | increase in annexin V (KG1a cells; 16-18 h)
1 | CXCL12WT: wild type CXCL12 (stromal cell-derived factor-1/SDF-1), SEQ ID NO:1 | prompted ubiquitin | promoted ubiquitination of CXCR4 | approximately 60% | significantly greater than CXCL122 | 1.75 ± 0.6 nM | strong staining | –
2 | CXCL122: constitutively dimeric variant of CXCL12 containing L36C/A65C mutations | failed to promote CXCR4 ubiquitination | – | ~15% | enhanced the cleavage of PARP | – | weak staining similar to vehicle | small but significant increase
